Consider 8 variants from article PMC5454376 (2017).

To fix the notation:
B1: Human His-Gαi3 WT [human] / Fluorescein-labelled RGS12 GoLoco peptide (residues 1,185–1,221) [modified: 5,6-carboxyfluorescein coupled to the resin-bound peptide after chain elongation; 5,6-carboxyfluorescein coupled to the resin-bound … (parent complex)
chain 1: MGCTLSAEDKAAVERSKMIDRNLREDGEKAAKEVKLLLLGAGESGKSTIVKQMKIIHEDGYSEDECKQYKVVVYSNTIQSIIAIIRAMGRLKIDFGEAARADDARQLFVLAGSAEEGVMTPELAGVIKRLWRDGGVQACFSRSREYQLNDSASYYLNDLDRISQSNYIPTQQDVLRTRVKTTGIVETHFTFKDLYFKMFDVGGQRSERKKWIHCFEGVTAIIFCVALSDYDLVLAEDEEMNRMHESMKLFDSICNNKWFTETSIILFLNKKDLFEEKIKRSPLTICYPEYTGSNTYEEAAAYIQCQFEDLNRRKDTKEIYTHFTCATDTKNVQFVFDAVTDVIIKNNLKECGLY
chain 2: DEAEEFFELISKAQSNRADDQRGLLRKEDLVLPEFLR

The assay covers variants of B1. Put plainly: fluorescence polarisation.
Take chain 1 L37A: the Kd is 80 nM. Turning to chain 1 N256A, the Kd was determined as 77 nM. As for chain 1 W258F, the Kd is 63 nM. With chain 1 L39A the figure was 176 nM; with chain 1 I184A, 83 nM.

For chain 1 L36A, the dissociation constant (Kd) worked out at 119 nM. Next, chain 1 F215A: 551 nM; chain 1 K257A: 86 nM.
